Measured values reported in US20140112930A1 (published 2014).
Residue numbers refer to the chain shown, from its start.

Assays:
hAng-1-WT = biological target: T1, hAng-1-WT (human, UniProt Q15389 20-498, limits assumed); test: SPR, 1 uM blocker premixed with 10 nM hAng-1-WT, over hTie-2-mFc surface
T1 construct: a tag is not mentioned there; also called full-length wild-type human Ang-1
T1 sequence (looked up): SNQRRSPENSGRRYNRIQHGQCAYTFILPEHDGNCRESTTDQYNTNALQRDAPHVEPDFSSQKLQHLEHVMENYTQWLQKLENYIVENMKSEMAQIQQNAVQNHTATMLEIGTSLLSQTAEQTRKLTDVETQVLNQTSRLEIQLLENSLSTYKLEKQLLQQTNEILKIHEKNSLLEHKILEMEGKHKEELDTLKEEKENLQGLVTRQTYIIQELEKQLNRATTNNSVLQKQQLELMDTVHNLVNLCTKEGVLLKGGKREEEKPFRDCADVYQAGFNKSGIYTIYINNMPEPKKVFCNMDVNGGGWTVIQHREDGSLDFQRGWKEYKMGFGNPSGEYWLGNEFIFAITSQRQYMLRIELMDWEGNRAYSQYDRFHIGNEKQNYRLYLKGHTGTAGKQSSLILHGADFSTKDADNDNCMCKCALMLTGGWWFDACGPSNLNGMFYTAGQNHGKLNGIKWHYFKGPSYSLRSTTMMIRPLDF
Description: In this experiment, a human Tie-2 full-length extracellular domain construct (hTie-2-mFc-ecto) was amine-coupled on a BIACORE™ chip to create a receptor coated surface. […] The equilibrated solutions were injected over the receptor surfaces at 5 μL/min for 5 minutes at 25° C.

hAng-2FD-mFc F-469-L = biological target: T2, hAng-2FD-mFc F-469-L (human, UniProt O15123 282-496); test: SPR 25C, hAng-2FD-mFc captured on anti-mFc, 100 nM analyte
T2 construct: not shown: mouse Fc
T2 chain: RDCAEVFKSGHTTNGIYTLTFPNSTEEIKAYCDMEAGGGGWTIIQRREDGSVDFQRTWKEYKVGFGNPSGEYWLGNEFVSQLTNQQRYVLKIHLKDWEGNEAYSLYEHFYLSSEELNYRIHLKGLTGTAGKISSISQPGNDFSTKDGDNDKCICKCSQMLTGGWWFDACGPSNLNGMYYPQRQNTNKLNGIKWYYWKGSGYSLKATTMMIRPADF

hAng-2FD-mFc N-467-G = biological target: T3, hAng-2FD-mFc N-467-G (human, UniProt O15123 282-496); test: as above
T3 construct: not shown: mouse Fc
T3 chain: T2 chain with N186G, L188F

hAng-2FD-mFc Y-475-H = biological target: T4, hAng-2FD-mFc Y-475-H (human, UniProt O15123 282-496); test: as above
T4 construct: not shown: mouse Fc
T4 chain: T2 chain with L188F, Y194H

[1] = biological target: T5, Full-length human Ang-2 protein conjugated to 6x histidine tag (human, UniProt O15123 19-496); test: blocking ELISA, 0.6 nM hAng-2-His to coated hTie-2-mFc
T5 construct: Bought (R&D Systems); printed as full-length; also called hAng-2 WT; Ang-2-His; not shown: 6x histidine tag
T5 sequence: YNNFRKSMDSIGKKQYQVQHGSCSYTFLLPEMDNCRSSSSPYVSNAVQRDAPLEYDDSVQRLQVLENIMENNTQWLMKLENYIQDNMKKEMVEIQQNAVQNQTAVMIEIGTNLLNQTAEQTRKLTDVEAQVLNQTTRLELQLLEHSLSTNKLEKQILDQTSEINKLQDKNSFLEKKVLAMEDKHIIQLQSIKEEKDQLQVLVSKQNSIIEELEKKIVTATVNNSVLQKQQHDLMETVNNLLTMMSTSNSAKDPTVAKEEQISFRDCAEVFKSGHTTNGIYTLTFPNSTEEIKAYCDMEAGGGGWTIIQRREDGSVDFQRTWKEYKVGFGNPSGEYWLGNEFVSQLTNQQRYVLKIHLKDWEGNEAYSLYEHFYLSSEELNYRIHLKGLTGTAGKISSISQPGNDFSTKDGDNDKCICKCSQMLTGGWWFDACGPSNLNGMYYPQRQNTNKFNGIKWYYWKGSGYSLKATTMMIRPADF
Description: Briefly, hTie-2-mFc (a chimeric construct consisting of human Tie-2 conjugated to mouse IgG; SEQ ID NO:525) was coated onto 96-well plates at a concentration of 2 μg/ml and incubated overnight followed by washing four times in wash buffer (PBS with 0.05% Tween-20). The plate was then blocked with PBS (Irvine Scientific, Santa Ana, Calif.) containing 0.5% BSA (Sigma-Aldrich Corp., St. Louis, Mo.) for one hour at room temperature. […] The antibody/antigen mixture was then added to the plate containing hTie-2-mFc and incubated for one hour at room temperature. […] Absorbance was read at OD₄₅₀ for 0.1 sec.

- Percent of Negative Control Binding (hAng-1-WT): 34%
- Kd (hAng-2FD-mFc F-469-L): 0.195 nM
- RU (hAng-2FD-mFc F-469-L): 180 RU
- T ½ (hAng-2FD-mFc F-469-L): 3.95 h
- Kd (hAng-2FD-mFc N-467-G): 0.0772 nM
- RU (hAng-2FD-mFc N-467-G): 139 RU
- T ½ (hAng-2FD-mFc N-467-G): 16.9 h
- Kd (hAng-2FD-mFc Y-475-H): 0.306 nM
- RU (hAng-2FD-mFc Y-475-H): 247 RU
- T ½ (hAng-2FD-mFc Y-475-H): 2.27 h
- IC50 [1]: 0.0787 nM
B1: H1H744N (antibody, V domains shown)
VH: QVQLVQSGVEVKKPGASVKVSCKTSGYTFSNNGFSWVRQAPGQGLEWLGWISGYNGNTNYAQKFQGRVTMTTDTSTSTAYMELRTLRSDDTAVYYCARDQDYSNFHWLDPWGQGTLVTVAS
VL: DIQMTQSPSSVSASVGDRVIITCRASQGLSSWLAWYQQKPGTAPKLLIHSASSLQTGVPSRFSGSGSGTEFALTINSLQPEDFGTYYCQQANSFPLTFGGGTRVEIK
